B1: IgG1-F1246 (antibody)
heavy: QVQLQESGPGLVKPSETLSLTCAVSGHSISHDHAWSWVRQPPGEGLEWIGFISYSGITNYNPSLQGRVTISRDNSKNTLYLQMNSLRAEDTAVYYCARSLARTTAMDYWGEGTLVTVSSASTKGPSVFPLAPSSKSTSGGTAALGCLVKDYFPEPVTVSWNSGALTSGVHTFPAVLQSSGLYSLSSVVTVPSSSLGTQTYICNVNHKPSNTKVDKKVEPKSCDKTHTCPPCPAPELRGGPKVFLFPPKPKDVLYITRTPEVTCVVVDVSHEDPEVKFNWYVDGVEVHNAKTKPREEQYNSTYRVVSVLTVLHQDWLNGKEYKCKVSNKALPAPIEKTISKAKGQPREPQVYTLPPSRDELTKNQVSLTCLVKGFYPSDIAVEWESNGQPENNYKTTPPVLDSDGSFFLYSKLTVDKSRWQQGNVFSCSVMHEALHYHVTRKELSLSP
light: not shown
notes: EU numbering; copies: 2 + 2
B2: IgG1-F1265 (antibody)
heavy: B1 heavy with V252T, T256S, T258G
light: not shown
notes: EU numbering; copies: 2 + 2
B3: IgG1-F1272 (antibody)
heavy: B1 heavy with V252T, T256A, H435D, R440K, E442D
light: not shown
notes: EU numbering; copies: 2 + 2
B4: IgG1-F1300 (antibody)
heavy: B1 heavy with V252T, T256S, T258E, V438T, R440K, E442D
light: not shown
notes: EU numbering; copies: 2 + 2
B5: IgG1-F1258 (antibody)
heavy: B1 heavy with V252T, T256S, T309A, Q313H
light: not shown
notes: EU numbering; copies: 2 + 2
B6: IgG1-F1296 (antibody)
heavy: B1 heavy with V252T, T256S, T258E, H435D, V438Y
light: not shown
notes: EU numbering; copies: 2 + 2
B7: IgG1-F1247 (antibody)
heavy: B1 heavy with T256S, T258E
light: not shown
notes: EU numbering; copies: 2 + 2
B8: IgG1-F1288 (antibody)
heavy: B1 heavy with V252T, T256S, T258E, R440K, E442D
light: not shown
notes: EU numbering; copies: 2 + 2
B9: IgG1-F1305 (antibody)
heavy: B1 heavy with V252T, T256S, H435D, E442D
light: not shown
notes: EU numbering; copies: 2 + 2
B10: IgG1-F1260 (antibody)
heavy: B1 heavy with V252T, T256S, T309Q, Q313H
light: not shown
notes: EU numbering; copies: 2 + 2
B11: IgG1-F1255 (antibody)
heavy: B1 heavy with V252T, T256S, Q313A
light: not shown
notes: EU numbering; copies: 2 + 2
B12: IgG1-F1293 (antibody)
heavy: B1 heavy with V252T, T256S, T258E, V438Y
light: not shown
notes: EU numbering; copies: 2 + 2
B13: IgG1-F1280 (antibody)
heavy: B1 heavy with V252T, T256S, T258G, H435D
light: not shown
notes: EU numbering; copies: 2 + 2
B14: IgG1-F1254 (antibody)
heavy: B1 heavy with V252T, T256S, T309Q
light: not shown
notes: EU numbering; copies: 2 + 2
B15: IgG1-F1295 (antibody)
heavy: B1 heavy with V252T, T256S, T258E, V438F
light: not shown
notes: EU numbering; copies: 2 + 2
B16: IgG1-F1298 (antibody)
heavy: B1 heavy with V252T, T256S, T258E, H435D, V438F
light: not shown
notes: EU numbering; copies: 2 + 2
B17: IgG1-F1310 (antibody)
heavy: B1 heavy with V252T, T256S, R440L, E442L
light: not shown
notes: EU numbering; copies: 2 + 2
B18: IgG1-F1308 (antibody)
heavy: B1 heavy with V252T, T256S, V424L, S426L, R440Q, E442S
light: not shown
notes: EU numbering; copies: 2 + 2
B19: IgG1-F1306 (antibody)
heavy: B1 heavy with V252T, T256S, H435D, R440K
light: not shown
notes: EU numbering; copies: 2 + 2
B20: IgG1-F1270 (antibody)
heavy: B1 heavy with V252T, T256A, R440K, E442D
light: not shown
notes: EU numbering; copies: 2 + 2
B21: IgG1-F1273 (antibody)
heavy: B1 heavy with V252T, T256S, T258Q, R440K, E442D
light: not shown
notes: EU numbering; copies: 2 + 2
B22: IgG1-F1264 (antibody)
heavy: B1 heavy with V252T, T256S, T258A
light: not shown
notes: EU numbering; copies: 2 + 2
B23: IgG1-F1275 (antibody)
heavy: B1 heavy with V252T, T256S, T258Q, H435D, R440K, E442D
light: not shown
notes: EU numbering; copies: 2 + 2
B24: IgG1-F1259 (antibody)
heavy: B1 heavy with V252T, T256S, T309Q, Q313A
light: not shown
notes: EU numbering; copies: 2 + 2
B25: IgG1-F1307 (antibody)
heavy: B1 heavy with V252T, T256S, V424A, S426A, R440Q, E442S
light: not shown
notes: EU numbering; copies: 2 + 2
B26: IgG1-F1292 (antibody)
heavy: B1 heavy with V252T, Y254M, T256S, H435D, Y436W
light: not shown
notes: EU numbering; copies: 2 + 2
B27: IgG1-F1263 (antibody)
heavy: B1 heavy with V252T, T256S, R440K, E442D
light: not shown
notes: EU numbering; copies: 2 + 2
B28: IgG1-F1261 (antibody)
heavy: B1 heavy with V252T, T256S, E442D
light: not shown
notes: EU numbering; copies: 2 + 2
B29: IgG1-F1269 (antibody)
heavy: B1 heavy with V252T, T256S, H435D, R440K, E442D
light: not shown
notes: EU numbering; copies: 2 + 2
B30: IgG1-F1251 (antibody)
heavy: B1 heavy with T256S, T258Q
light: not shown
notes: EU numbering; copies: 2 + 2
B31: IgG1-F1284 (antibody)
heavy: B1 heavy with V252T, T256S, T258N, H435D, R440K, E442D
light: not shown
notes: EU numbering; copies: 2 + 2
B32: IgG1-F1250 (antibody)
heavy: B1 heavy with V252T, T258Q
light: not shown
notes: EU numbering; copies: 2 + 2
B33: IgG1-F1279 (antibody)
heavy: B1 heavy with V252T, T256S, T258G, R440K, E442D
light: not shown
notes: EU numbering; copies: 2 + 2
B34: IgG1-F1291 (antibody)
heavy: B1 heavy with V252T, T256S, H435D, R440Q, E442S
light: not shown
notes: EU numbering; copies: 2 + 2
B35: IgG1-F1283 (antibody)
heavy: B1 heavy with V252T, T256S, T258N, H435D
light: not shown
notes: EU numbering; copies: 2 + 2
B36: IgG1-F1249 (antibody)
heavy: B1 heavy with V252T, T256S, T258Q
light: not shown
notes: EU numbering; copies: 2 + 2
B37: IgG1-F1266 (antibody)
heavy: B1 heavy with V252T, T256S, T258N
light: not shown
notes: EU numbering; copies: 2 + 2
B38: IgG1-F1274 (antibody)
heavy: B1 heavy with V252T, T256S, T258Q, H435D
light: not shown
notes: EU numbering; copies: 2 + 2
B39: IgG1-F1281 (antibody)
heavy: B1 heavy with V252T, T256S, T258G, H435D, R440K, E442D
light: not shown
notes: EU numbering; copies: 2 + 2
B40: IgG1-F1304 (antibody)
heavy: B1 heavy with V252T, T256S, T258E, H435D, V438F, R440K, E442D
light: not shown
notes: EU numbering; copies: 2 + 2
B41: IgG1-F1311 (antibody)
heavy: B1 heavy with V252T, T256S, V424A, S426A, H435D, R440Q, E442S
light: not shown
notes: EU numbering; copies: 2 + 2
B42: IgG1-F1256 (antibody)
heavy: B1 heavy with V252T, T256S, Q313H
light: not shown
notes: EU numbering; copies: 2 + 2
B43: IgG1-F1253 (antibody)
heavy: B1 heavy with V252T, T256S, T309A
light: not shown
notes: EU numbering; copies: 2 + 2
B44: IgG1-F1289 (antibody)
heavy: B1 heavy with V252T, T256S, T258E, H435D
light: not shown
notes: EU numbering; copies: 2 + 2
B45: IgG1-F1277 (antibody)
heavy: B1 heavy with V252T, T256S, T258A, H435D
light: not shown
notes: EU numbering; copies: 2 + 2
B46: IgG1-F1276 (antibody)
heavy: B1 heavy with V252T, T256S, T258A, R440K, E442D
light: not shown
notes: EU numbering; copies: 2 + 2
B47: IgG1-F1290 (antibody)
heavy: B1 heavy with V252T, T256S, T258E, H435D, R440K, E442D
light: not shown
notes: EU numbering; copies: 2 + 2
B48: IgG1-F1286 (antibody)
heavy: B1 heavy with V252T, H435D
light: not shown
notes: EU numbering; copies: 2 + 2
B49: IgG1-F1302 (antibody)
heavy: B1 heavy with V252T, T256S, T258E, H435D, V438Y, R440K, E442D
light: not shown
notes: EU numbering; copies: 2 + 2
B50: IgG1-F1309 (antibody)
heavy: B1 heavy with V252T, T256S, R440A, E442A
light: not shown
notes: EU numbering; copies: 2 + 2
B51: IgG1-F1282 (antibody)
heavy: B1 heavy with V252T, T256S, T258N, R440K, E442D
light: not shown
notes: EU numbering; copies: 2 + 2
B52: IgG1-F1257 (antibody)
heavy: B1 heavy with V252T, T256S, T309A, Q313A
light: not shown
notes: EU numbering; copies: 2 + 2
B53: IgG1-F1252 (antibody)
heavy: B1 heavy with T258Q
light: not shown
notes: EU numbering; copies: 2 + 2
B54: IgG1-F1285 (antibody)
heavy: B1 heavy with V252T, R440K, E442D
light: not shown
notes: EU numbering; copies: 2 + 2
B55: IgG1-F1271 (antibody)
heavy: B1 heavy with V252T, T256A, H435D
light: not shown
notes: EU numbering; copies: 2 + 2

Substitutions are numbered along the chain they refer to.

The target in the assay is T1, soluble human FcRn (human, UniProt P55899 24-297; P61769 21-119).
T1 construct: Heterodimer of FcRn alpha chain and beta2-microglobulin; also called hFcRn
T1 sequence (P55899 24-297 limits assumed, chain 1 of 2): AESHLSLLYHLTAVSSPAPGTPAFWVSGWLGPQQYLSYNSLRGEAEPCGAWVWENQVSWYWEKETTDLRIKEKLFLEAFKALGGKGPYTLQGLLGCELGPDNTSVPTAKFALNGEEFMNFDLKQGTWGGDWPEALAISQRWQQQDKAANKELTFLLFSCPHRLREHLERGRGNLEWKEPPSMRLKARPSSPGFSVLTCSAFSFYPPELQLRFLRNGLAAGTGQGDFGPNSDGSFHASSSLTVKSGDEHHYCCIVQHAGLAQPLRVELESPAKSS
T1 sequence (P61769 21-119 limits assumed, chain 2 of 2): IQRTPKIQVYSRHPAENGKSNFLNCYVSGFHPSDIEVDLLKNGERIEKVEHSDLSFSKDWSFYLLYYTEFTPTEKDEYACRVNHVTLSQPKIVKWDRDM
Description: SPR (Biacore T100), antibody captured by protein L, hFcRn as analyte, pH 7.0, 25 C.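 Further: KD calculated from fitted association and dissociation rate constants of the sensorgrams, protein L amine-coupled to the sensor chip, sodium phosphate running buffer with NaCl and Tween20.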
Description: An appropriate amount of protein L (ACTIGEN) was immobilized onto Sensor chip CM4 (GE Healthcare) by the amino coupling method, and the chip was allowed to capture an antibody of interest. Then, diluted FcRn solutions and running buffer (as a reference solution) were injected to allow human FcRn to interact with the antibody captured on the sensor chip. The running buffer used comprised 50 mmol/l sodium phosphate, 150 mmol/l NaCl, and 0.05% (w/v) Tween20 (pH 7.0). FcRn was diluted using each buffer. The chip was regenerated using 10 mmol/l glycine-HCl (pH 1.5). Assays were carried out exclusively at 25 degrees C. The association rate constant ka (1/Ms) and dissociation rate constant kd (1/s), both of which are kinetic parameters, were calculated based on the sensorgrams obtained in the assays, and KD (M) of each antibody for human FcRn was determined from these values. Each parameter was calculated using Biacore T100 Evaluation Software (GE Healthcare).
As to B1, the Kd came out at 170 nM.
The result for B2 reads 160 nM; that for B3, 170 nM; that for B4, 160 nM.
Then B5, with 110 nM; and B6, with 230 nM; and B7, with 150 nM.
B8 yielded a Kd of 79 nM.
In turn, B9 returned a Kd of 200 nM.
Molecule B10 had a Kd of 65 nM.
Consider B11, for which the Kd is 110 nM.
The result for B12 reads 160 nM; that for B13, 210 nM; that for B14, 64 nM.
The result for B15 reads 98 nM; that for B16, 150 nM; that for B17, 230 nM.
The result for B18 reads 210 nM; that for B19, 190 nM.
The molecule B20 registered a Kd of 120 nM.
Regarding B21, the Kd came out at 150 nM.
In turn, B22 returned a Kd of 130 nM.
As for B23, binding was characterised by a dissociation constant (Kd) of 210 nM.
On to B24, for which the Kd was found to be 45 nM.
Regarding B25, the Kd worked out at 140 nM.
Take B26: binding was characterised by a dissociation constant (Kd) of 420 nM. Compared with the last molecule, the Kd is about 3-fold higher.
Then B27, with 120 nM; and B28, with 140 nM.
The result for B29 reads 170 nM; that for B30, 280 nM.
The result for B31 reads 110 nM; that for B32, 170 nM.
In turn, B33 showed a dissociation constant Kd of 120 nM.
As for B34, binding was put at a Kd of 150 nM.
As for B35, the Kd came to 130 nM.
Then B36, with 210 nM; and B37, with 100 nM.
In turn, B38 yielded a Kd of 250 nM.
Then B39, with 170 nM; and B40, with 120 nM.
Then B41, with 170 nM.
The result for B42 reads 160 nM; that for B43, 110 nM.
The molecule B44 registered a Kd of 130 nM.
The result for B45 reads 170 nM; that for B46, 100 nM; that for B47, 110 nM.
Regarding B48, binding was characterised by a dissociation constant (Kd) of 160 nM.
Molecule B49 came in with a Kd of 220 nM.
The result for B50 reads 130 nM.
Then B51, with 77 nM; and B52, with 78 nM; and B53, with 230 nM.
B54 had a Kd of 94 nM.
Take B55: binding was put at a Kd of 200 nM.

By Kd is commonly meant the constant that tells how readily two partners part at equilibrium.

The values above are taken from patent publication US20140363428A1 (Chugai, published 2014).
